Source: publication PMC6458997
Substitutions are numbered along the chain they refer to.

Key:
AimR D360A (SPbeta) = target: T1, AimR D360A (SPbeta) (Bacillus subtilis phage SPbeta (cloned …, UniProt O31927 1-386, D360A)); test: EMSA; apo; WT probe assumed; EMSA: 50 mM HEPES pH 7.5, 5 mM MgCl2, 75 mM NaCl, 0.5 mM EDTA; 0.4 uM DNA, 4 uM AimR; 10 min at room temperature; 8% PAGE in TBE at 4 C or agarose in TAE at room temperature; settings: protein: recombinant; tags: N-terminal 6xHis-TEV, cleaved (as WT); chain copies: 2
T1 sequence: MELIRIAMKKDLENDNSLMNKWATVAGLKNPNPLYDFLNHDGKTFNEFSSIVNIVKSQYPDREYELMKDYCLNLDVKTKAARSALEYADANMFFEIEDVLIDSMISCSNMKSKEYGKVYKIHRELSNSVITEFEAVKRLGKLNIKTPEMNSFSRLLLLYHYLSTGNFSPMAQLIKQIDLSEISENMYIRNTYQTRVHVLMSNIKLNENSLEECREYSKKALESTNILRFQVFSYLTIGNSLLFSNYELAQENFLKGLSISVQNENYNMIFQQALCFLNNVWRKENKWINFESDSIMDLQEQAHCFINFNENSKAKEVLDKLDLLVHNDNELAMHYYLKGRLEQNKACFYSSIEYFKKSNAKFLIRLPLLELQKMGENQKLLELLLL

AimR N202A (SPbeta) = target: T2, AimR N202A (SPbeta) (Bacillus subtilis phage SPbeta (cloned …, UniProt O31927 1-386, N202A)); test: as above; settings: protein: recombinant; tags: N-terminal 6xHis-TEV, cleaved (as WT); chain copies: 2
T2 sequence: T1 sequence with N202A, A360D

B1: SPbeta operator WT 45 bp (dsDNA)
DNA 1: GTTGATCACTAGATGTTATTAAAACCTAATATTTAAGTGATGGCC
DNA 2: GGCCATCACTTAAATATTAGGTTTTAATAACATCTAGTGATCAAC
B1: no binding (AimR D360A (SPbeta)); binds (AimR N202A (SPbeta)).
